One substance from PMC4323857 can be followed below.

The assay deals with D4 self-association region of P6 (amino acids 414-520), in pEG202 (Cauliflower mosaic virus isolate CM1841). The assay can be described thus: two-hybrid.

Regarding “Full-length P6 with the D3b mutation V324A, in pJG4-5 (natural protein)”, the fold less β-galactosidase activity than the wild type is 9 fold.
